Measured values from US7125541.

Experiments:
human endoglin (human) [1] = molecular target: human endoglin (human) (UniProt P17813); assay: competitive binding inhibition on HUVEC by FACS; unlabelled TEC-4 against competitor biotinylated TEC-11, ratio 1:1
human endoglin (human) [2] = molecular target: human endoglin (human) (UniProt P17813); assay: competitive binding inhibition on HUVEC by FACS; unlabelled TEC-4 against competitor biotinylated TEC-11, ratio 1:100
human endoglin (human) [3] = molecular target: human endoglin (human) (UniProt P17813); assay: competitive binding inhibition on HUVEC by FACS; unlabelled TEC-11 against competitor biotinylated TEC-4, ratio 1:1

| percent blocking of biotinylated antibody (human endoglin (human) [1]) | percent blocking of biotinylated antibody (human endoglin (human) [2]) | percent blocking of biotinylated antibody (human endoglin (human) [3]) | Substance |
| --- | --- | --- | --- |
| 1% | 20% |  | TEC-4 (tumor endothelial cell antibody 4) |
|  |  | 51% | TEC-11 (tumor endothelial cell antibody 11) |
